Protein stability index data for 26 sequences are collected here from the supplement of paper PMC9732359.

± gives the uncertainty stated by the source.

The nature of the data set: protein stability index of a GFP-peptide fusion (yeast GPS) (PSI 1-4); higher = more stable; sorted into four equal gates, so the index is relative within each strain. In a few lines:
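Plasmids isolated from each sorting gate were PCR-amplified and Illumina-sequenced, and barcodes assigned the reads to strains. The gates, four of equal size, were set by GFP/Cherry fluorescence ratio on mid-log cultures in leucine-free medium. These cultures were yeast carrying a pooled library of tiled 17-residue yeast protein peptides fused downstream of GFP on a plasmid that also expresses Cherry. The protein stability index is the sum of every gate's read frequency times its gate number.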

For LHNLNEYQIVYYNPQAG [RGR1], the protein stability index is, setting by setting: (doa10∆) 1.41 ± 0.27; (pdr5∆) 2.44 ± 0.15; (san1∆) 2.1 ± 0.11.

With EGLDLLKLCVQELEKRM [PRE1], the protein stability index reads like this: (doa10∆) 2.04 ± 0.095; (pdr5∆) 2.32 ± 0.076; (san1∆) 2.19 ± 0.16; (ubr1∆) 2.06 ± 0.059.

Turning to NSIRAREVENSVSLLNS [SMC1], the protein stability index is, setting by setting: (doa10∆) 2.55 ± 0.064; (pdr5∆) 2.78 ± 0.06; (san1∆) 3.09 ± 0.071; (ubr1∆) 3.08 ± 0.069.

As to FMLILALFVFYSPNTLG [COB], the protein stability index reads like this: (doa10∆) 2.28 ± 0.074; (pdr5∆) 2.15 ± 0.057; (san1∆) 2.46 ± 0.056; (ubr1∆) 2.52 ± 0.053.

In the case of KIAHGTTTLAFRFQGGI [PRE2], the protein stability index reads like this: (doa10∆) 3.03 ± 0.095; (pdr5∆) 3.11 ± 0.073; (san1∆) 2.84 ± 0.067; (ubr1∆) 3.1 ± 0.069.

KLHVAAKLPGHKSLIRS [YGL100W/SEH1]: the protein stability index was 1.83 ± 0.11 (doa10∆), 2.03 ± 0.13 (pdr5∆) and 2.33 ± 0.094 (ubr1∆).

As to VVARRSNSANVSSPESE [ITC1], the protein stability index (doa10∆) turned out to be 3.19 ± 0.05, the protein stability index (pdr5∆) stood at 3.35 ± 0.053, the protein stability index (san1∆) came out at 3.25 ± 0.036 and the protein stability index (ubr1∆) turned out to be 3.18 ± 0.035.

Consider FISAARYKPKSHLWEID [RPC37], for which the protein stability index was 3.02 ± 0.11 (doa10∆), 3.06 ± 0.082 (pdr5∆), 2.71 ± 0.067 (san1∆) and 3.11 ± 0.069 (ubr1∆).

Take ATTGGLFGSKPQGSTTN [YGR119C/NUP57]: the protein stability index is, setting by setting: (doa10∆) 3.34 ± 0.1; (pdr5∆) 3.37 ± 0.1; (san1∆) 3.39 ± 0.12; (ubr1∆) 3.55 ± 0.18.

For YLLEELESYLIVHHPYQ [SSN8], the protein stability index reads like this: (doa10∆) 2.56 ± 0.058; (pdr5∆) 2.45 ± 0.06; (san1∆) 2.43 ± 0.056; (ubr1∆) 2.36 ± 0.044.

As to DQHVINILWAIYNSASK [YCS4], the protein stability index is, setting by setting: (doa10∆) 1.69 ± 0.044; (pdr5∆) 2.22 ± 0.048; (san1∆) 1.63 ± 0.077; (ubr1∆) 1.59 ± 0.041.

Consider IVLSKAASALDEKEKQL [SIR4], for which the protein stability index was determined as 3.35 ± 0.1 (doa10∆), 3.03 ± 0.11 (pdr5∆), 3.04 ± 0.17 (san1∆) and 3.57 ± 0.21 (ubr1∆).

ESKPFSSDALSKEKANF [SIR4]: the protein stability index runs as follows: (doa10∆) 1.96 ± 0.068; (pdr5∆) 1.59 ± 0.065; (san1∆) 1.73 ± 0.089; (ubr1∆) 1.39 ± 0.056.

QLSKAAKAAAALAGGKK [RPS25A]: the protein stability index runs as follows: (doa10∆) 1.7 ± 0.057; (pdr5∆) 1.86 ± 0.067; (san1∆) 1.82 ± 0.08; (ubr1∆) 1.77 ± 0.047.

Regarding RGSLDSEHVFDYFFYFL [NUT1], the protein stability index is 2.8 ± 0.059 (doa10∆), 2.59 ± 0.042 (pdr5∆), 2.71 ± 0.041 (san1∆) and 3.16 ± 0.032 (ubr1∆).

Take KHEEIDTKNLYVIKALQ [RPS10A]: the protein stability index by setting is: (doa10∆) 1.6 ± 0.085; (pdr5∆) 2.02 ± 0.078; (san1∆) 1.64 ± 0.12; (ubr1∆) 1.46 ± 0.077.

As for DVSRVAAVETLYQDMAA [RPL20A], the protein stability index was found to be 2.66 ± 0.066 (doa10∆), 2.67 ± 0.08 (pdr5∆), 2.37 ± 0.089 (san1∆) and 2.09 ± 0.071 (ubr1∆).

Take YDDFIYLSDLKQFFQMT [PCI8]: the protein stability index is, setting by setting: (doa10∆) 2.5 ± 0.075; (pdr5∆) 2.89 ± 0.073; (san1∆) 2.61 ± 0.084; (ubr1∆) 2.87 ± 0.051.

As to ELWRKEQKLQTVLETLL [SMC3], the protein stability index reads like this: (doa10∆) 2.9 ± 0.13; (pdr5∆) 3.42 ± 0.11; (san1∆) 2.7 ± 0.17; (ubr1∆) 3.31 ± 0.064.

In the case of PLLYNSLCTVWKPNPSY [SRB5], the protein stability index is, setting by setting: (doa10∆) 1.99 ± 0.11; (pdr5∆) 1.68 ± 0.062; (san1∆) 2.21 ± 0.11; (ubr1∆) 2.13 ± 0.1.

As to ALAQQKLLTPQDMEAAK [GAL11], the protein stability index worked out at 3.2 ± 0.12 (doa10∆), 3.38 ± 0.13 (pdr5∆), 3.4 ± 0.1 (san1∆) and 3.32 ± 0.095 (ubr1∆).

For LKELRIDNSPQAISYLH [GRR1], the protein stability index reads like this: (doa10∆) 2.17 ± 0.054; (pdr5∆) 2.55 ± 0.051; (san1∆) 2.08 ± 0.057; (ubr1∆) 2.4 ± 0.034.

Take SKEVRGSKIRVMWGKVT [RPL33A]: the protein stability index is, setting by setting: (doa10∆) 2.68 ± 0.1; (pdr5∆) 2.35 ± 0.12; (san1∆) 2.4 ± 0.092; (ubr1∆) 2.6 ± 0.067.

On to KNIAQCLSDYTKKISNF [YJL039C/NUP192], for which the protein stability index (doa10∆) stood at 1.79 ± 0.055, the protein stability index (pdr5∆) is 2.22 ± 0.055, the protein stability index (san1∆) came to 2.02 ± 0.068 and the protein stability index (ubr1∆) was determined as 1.49 ± 0.036.

Turning to GKKVLNKNQLLKRNRIR [POP1], the protein stability index was determined as 2.88 ± 0.068 (doa10∆), 3.08 ± 0.055 (pdr5∆), 2.94 ± 0.064 (san1∆) and 3.05 ± 0.053 (ubr1∆).

RETDPLVYNMTSFEQGE [RPT4]: the protein stability index by setting is: (doa10∆) 3.09 ± 0.12; (pdr5∆) 2.49 ± 0.11; (san1∆) 3.23 ± 0.18; (ubr1∆) 2.7 ± 0.068.
